According to patent US20250170209A1 (published 2025):
Blank lines part the entries; values can stand above or below the binder they belong to.

How the values were obtained:
complement component C3 [1] = target: T1, complement component C3 (human, UniProt P01024 23-1663); assay: cell-based or functional assay
complement component C3 [2] = target: T1, complement component C3; assay: cell-based or functional assay; remark: listed apart in the source

activity relative to CA28 on a molar basis; classical complement inhibition assay (complement component C3 [1]): ~30 % of the activity of CA28
IC50; classical complement inhibition assay (C3b deposition ELISA, human plasma) (complement component C3 [2]): 1290 nM
B1: CA28-AEEAc-Lys-(PEG40k) (peptide)
peptide: ICVXQDWGAHRCTK
modifications: not fully specified; N-terminal acetyl; 1-methyl-tryptophan at position 4; disulfide Cys2-Cys12; AEEAc (8-amino-3,6-dioxaoctanoyl) between Thr13 and Lys; linear monofunctional 40 kD methoxy-PEG (SUNBRIGHT ME-400GS) on the Lys side chain; C-terminal amide

IC50 on a molar basis (calculated for 7.5 CA28 moieties per molecule); classical complement inhibition assay (complement component C3 [1]): ~260 nM
IC50 as a function of CA28 concentration (per peptide moiety); classical complement inhibition assay (complement component C3 [2]): 1930 nM
B2: (CA28-AEEAc)8-PEG40k (peptide)
peptide: ICVXQDWGAHRCTK
modifications: not fully specified; N-terminal acetyl; 1-methyl-tryptophan at position 4; disulfide Cys2-Cys12; AEEAc between Thr13 and Lys; Lys side chain coupled to one arm of an eight-arm 40 kD PEG (SUNBRIGHT HGEO-400GS); C-terminal amide

activity relative to CA28 on a molar basis; classical complement inhibition assay (complement component C3 [1]): ~30 % of the activity of CA28
IC50; classical complement inhibition assay (C3b deposition ELISA, human plasma) (complement component C3 [2]): 1260 nM
B3: CA28-AEEAc-Lys-(PEG30k) (peptide)
peptide: ICVXQDWGAHRCTK
modifications: not fully specified; N-terminal acetyl; 1-methyl-tryptophan at position 4; disulfide Cys2-Cys12; AEEAc (8-amino-3,6-dioxaoctanoyl) between Thr13 and Lys; linear monofunctional 30 kD PEG (SUNBRIGHT ME-300GS) on the Lys side chain; C-terminal amide
